Measurements taken from article PMC3879356.

Target: cytosolic domain of CAML (CAMLcyt), GST-tagged
Assay: SPR; WRBcc or CAMLcyt immobilised on a HC1000m sensorchip (Reichert SR7000DC); analyte TRC40wt or TRC40wt/RAMP4 in PBS, 15°C, 40 µl/min, injected 270 s, dissociation 12 min; average of three independent measurements

Chain of TRC40/RAMP4 complex (MBP-TRC40/HZZ-RAMP4op protein complex) (O43681 whole entry): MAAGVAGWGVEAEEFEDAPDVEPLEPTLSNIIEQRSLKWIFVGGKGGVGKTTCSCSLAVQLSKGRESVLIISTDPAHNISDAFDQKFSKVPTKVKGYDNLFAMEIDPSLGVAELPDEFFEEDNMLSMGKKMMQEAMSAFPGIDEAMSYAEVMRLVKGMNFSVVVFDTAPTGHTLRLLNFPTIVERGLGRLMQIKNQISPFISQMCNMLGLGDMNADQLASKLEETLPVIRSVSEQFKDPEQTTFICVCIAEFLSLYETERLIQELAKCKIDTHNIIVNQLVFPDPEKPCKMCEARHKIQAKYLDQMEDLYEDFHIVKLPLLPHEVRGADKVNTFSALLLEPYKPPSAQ
Chain of TRC40/RAMP4 complex (MBP-TRC40/HZZ-RAMP4op protein complex) (Q9Y6X1 whole entry): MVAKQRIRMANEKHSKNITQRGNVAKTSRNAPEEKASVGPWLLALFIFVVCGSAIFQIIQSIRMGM

Kd: 34 nM
Substance: TRC40/RAMP4 complex (MBP-TRC40/HZZ-RAMP4op protein complex) (from UniProt O43681 1-348; Q9Y6X1 1-66)
